B1: XP_020704102.1: Type-III PKS enzyme from Dendrobium catenatum (protein, listed as Dendrobium catenatum)
chain: MPSLESIKKAPRADGFASILAIGRANPENFIEQSAYPDLFFRITKSEHLVDLKNKFKRICDKTAIRKRHFVWTEEFITANPCFSTFMEKSLNIRQEVAIREIPKLGAEAAAKAIQEWGQPKSRITHLIFCTRSGMGLPGPDYQLTQILGLNPNVERVMIYQQGCFAGGTTLRLAKCLAESHKGARVLVVCAETSTVLFRAPSMEHQEDLVTQALFADGASALIVGADPDETADEHASFVIVSTSQVLLPESAGAIGGHVSEGGFLPMIHRDVPQIVSKNIGKCLEEAFTPLGIMDWNSIFWVPHPGGRAILDQLDERVGLKPEKLFISRHVLKEYGNMSSASVHFALDEMRKWSAKEGTTGEGLEWGVLFGFGPGVTVDTVVLRSVPI
modifications: (1)..(388) XP_020704102.1
B2: PKA53998.1: Type-III PKS enzyme from Apostasia shenzhenica (protein, listed as Apostasia shenzhenica)
chain: MPGLQIISKASSRAADGLAAILAIGRANPPNSMDQSSYPEFYFRVMDSDHLVDLKKKFQRICERTAIRKRHFVWNEELLRDNPCLRTFMDSSLNVRQKVAVAEIPKLGAAAAERAIEEWGQPRSGITHLIFCTTSGMDLPGADYQLTKILGLNADVQRVMLYQQGCFAGGTVLRLAKVLAESRKGARVLVVCAETTTVLIRAPSVEHQDDLVTQALFADGASALIVGADPVEEVNERPLFSIISASQVILPDSDGAIGGHLGEGGLTATLHRDVPLIISKNVSKCLEDAFSPLGISDWNSIFWAPHPGGRAILDQVEERVGLKPEKMWASRHVLAEYGNMSSVCVHFVLDEMRKRSAKEGKPTTGEGLEWGVLFGFGPGLTVETVVLRSHPIN
modifications: (1)..(393) PKA53998.1
B3: XP_020591420.1: Type-III PKS enzyme from Phalaenopsis equestris (protein, listed as Phalaenopsis equestris)
chain: MPNMESIKKEDGLATIMAIGRALPPNSIDQNSFPDFYFRVHNSEHLMDLKNKFRRICERTAIRKRHFVWNEEVLKQNPCLRTFMEPSLNTRQEIVCSEIPKLGAEAARNAIREWGQPERSITHLIFCTTSGMNLPGADFEAAQILGLNHSVERVMLYQQGCFAGGTVLRLAKCLAESRRGARVLVICAESTTSLVRSPSREHQYDLIAQALFADGASALIIGTEPNAEAGERPIFSIFSTAQVTLPDSGDAIRGYLKEGGLIATLAKDVPLIISENIERCLQEAFGPLGISDWNSIFWAPHPGGRAILDGIEDKLGLKPEKLWAARHVLAEYGNMSSVCVHYILDEMRRRDVKNGKAPTGDGPEWGVLFGFGPGLTVETVVLRRLFL
modifications: (1)..(387) XP_020591420.1
B4: XP_020704098.1: Type-III PKS enzyme from Dendrobium catenatum (protein, listed as Dendrobium catenatum)
chain: MPSLESIKKAPRADGFASILAIGRANPENFIEQSAYPDLFFRITNSEHLVDLKNKFKRICDKTAIRKRHFVWTEEFITANPCFSTFMDKSLNIRQEVAIREIPKLGAEAATKAIQEWGQPKSRITHLIFCTTSGMDLPGADYQLTQILGLNPNVERVMLYQQGCFAGGTTIRLAKCLAESRKGARVLVVCAETTTVLFRGPSEEHQDDLVTQALFADGASALIVGADPDEAADEHASFVIVSTSQVLLPDSAGAIGGHVSEGGLLATLHRDVPQIVSKNVGKCLEEAFTPLGISDWNSIFWVPHPGGRAILDQVEESVGLKPEKLFISRHVLAEYGNMSSVCVHFALDEMRKRSAKEGKATTGEGLEWGVLFGFGPGVTVETVILRSVPI
modifications: (1)..(390) XP_020704098.1
B5: AAX54693.1: Type-III PKS enzyme from Phalaenopsis hybrid cultivar (protein)
chain: MPTIESIKKAPRAHGFASILAIGKANPENFIEQCHYPDFYFRVTSSEHLVDLKEKFQRMCDRTAIRKRHFVWNEDLLTANPCLRTYMDKSLNIRQEVAIREIPKLGAEAATKAIQEWGQPKSSITHLIFCTTSGMDLPGADFQLTQILGLNPNVERVMLYQQGCFAGGTTLRLAKCLAESREGARVLVVCAETTTVVFRAPSEEHQDDLVTQALFADGASAVIVGVDPNEAAHERASFIIVSASQVLLPDSAGAIGGHVSEGGLTATLHRDVPQIVSKNVGKCLEEAFTPFGISDWNSIFWVPHAGGRAILDQVEERVGLKPEKLSVSRHVLAEYGNMSSVCVHFALDEMRKKSAKEAKATTGEGLEWGVLFGFGPGLTVETVVLHSVPI
modifications: Phalaenopsis hybrid cultivar; (1)..(390) AAX54693.1
B6: AHH25569.1: Type-III PKS enzyme from Bletilla striata (protein, listed as Bletilla striata)
chain: MPSLDSIKKAPRADGIASILAIGRANPDNIIEQSAYPDFYFRVTNSEHLVDLKKKFQRICEKTAIRKRHFVWNEEFLTSNPSFSTFMDKSLYVRQEVAIREIPKLGAKAATKAIEDWGQPKSRISHLIFCTTSGMDLPGADYQLTQILGLNPNVERLMLYEQGCFAGGTTLRLAKCLAESRKGARVLVVCAETTTVLFRAPSEEHQDDLVTQALFADGASALIVGADPDEAADERASFVIVSTSQVLLPDTAGAIGGHVSEGGLLATLHRDVPQIVTKNVGKCLEEAFTPFGISDWNSIFWVPHPGGRAILDQVEERVGLKPEKLSVSRHVLAEYGNMSSVCVHFALDEMRKRSANEGKPTTGEGLEWGVLFGFGPGLTVETVVLRSVPL
modifications: (1)..(390) AHH25569.1
B7: AFU07719.1: Type-III PKS enzyme from Paphiopedilum purpuratum (protein, listed as Paphiopedilum purpuratum)
chain: MPGLENRKKVEAPKRAEGLATILAIGRANPPNDMEQSTFPDFYFRVTNSEHLVSLKKKFERICEKTAIRRRHFVWNEEILNANPCLRTHMEPSLNVRQKIAVAEIPKLGAEAASRAIEEWGQPKSHITHLIFCTTSGMDLPGADYKLTRILGLNPNVQRVMLYQQGCFAGGTVLRLAKCFAESQKGARVLVVCSETTTVLVRAPSEDYQDDLVTQALFADGASALIVGADPDEEAKEQPIFTIVSATQVILPDSDGAIGGHLGEGGLTATLHRDVPLIISKNVSKCLEEAFGPLGISDWNSIFWAPHPGGRAILDQVEERVGLKPEKLWASRHVLAEYGNMSSVCVHFVLDEIRKRSTKEGKTTTGEGFDWGVLFGFGPGLTVETVILRSVPLN
modifications: (1)..(394) AFU07719.1
B8: AFU07718.1: Type-III PKS enzyme from Paphiopedilum micranthum (protein, listed as Paphiopedilum micranthum)
chain: MPGLENRKKVEAPIRAEGLATIMAIGRANPPNAMEQSTFPDFYFRVTNSEHLVGLKKKFQRICEKTAIRRRHFVWNEEILNANPCLRTHMEPSLNVRQKIAVAEIPKMGAEAASRAIEEWGQSKSRITHLIFCTTSGMDLPGADYQLTRILGLNPNVQRVMLYQQGCFAGGTVLRLAKCLAESQKGARVLVVCSETTAVLVRAPSEEYHDDLVTQALFADGASALIVGADPDEEAKERPIFTIVSTTQVILPDSDGAIGGHLGEGGLTATLHRDVPLIISKNVSKCLEEAFTPLGISDWNSIFWAPHPGGRAILDQVEERASLKPEKLWASRHVLTEYGNMSSVCVHFVLDEIRKRSAKEGKATTGEGFDWGVLFGFGPGLTVETVVLRSVPLN
modifications: (1)..(394) AFU07718.1

The first assay relates to E. coli derivative strain which overexpressed an acyl-CoA synthetase (fadD) gene and expressed an olivetolic acid cyclase (OAC) from Cannabis sativa. The assay can be described thus: OL, OLA and PDAL production in E. coli from plasmid-expressed Type-III PKS genes. The class given is cell-based. As to conditions: OL + OLA + PDAL; gene on plasmid. The protocol:
To test olivetolic acid production in E. coli, strains comprising a putative OLS gene and an OAC gene from C. sativa were inoculated in multi-well plates containing LB supplemented with 1% glucose and appropriate concentrations of antibiotics. After 6 hours of cultivation at 32° C., the cells were transferred with a 10% inoculum to a P-limited seed medium (see Table 2) and cultivated for ˜18 hours at 32° ° C. to reach an OD of 2.0-4.0. The cultures were transferred with a 20% inoculum in a P-minimal medium (see Table 3) supplemented with 2% glucose and appropriate concentrations of antibiotics. After 3 hours of cultivation at 32° C., the culture was spiked with 4 mM hexanoic acid (˜OD 1.5-2.0). The resulting cultures were then harvested at either 3 hours or 21 hours post hexanoic acid spike; a final OD was taken. 300 μL of butyl acetate containing 500 mg/L undecanoic acid was added to each multi-well plate. The plates were then vortexed for 30 minutes at 1500 rpm and centrifuged for 10 minutes at 4500 rpm. 50 μL of organic layer was transferred to a 96-well plate and derivatized with 50 μL of N,O-Bis(trimethylsilyl)trifluoroacetamide (BSTFA). The plate was then incubated at room temperature for 2 hours to allow for complete derivatization. The samples were then run on GC-FID for analytical quantification of olivetolic acid (OLA), olivetol (OL), PDAL, and hexanoic acid.
Olivetol, PDAL, OLA, HTAL, CBGA and combinations thereof were analyzed by LCMS or LCMS/MS methods using C18 reversed phase chromatography coupled to either EXACTIVE™ (ThermoFisher) or QTRAP® 4500 (Sciex) mass spectrometers.
For reversed phase LCMS, compounds were identified by their LC retention times and MRM transitions specific to the compounds. LCMS/MS analysis was conducted on a Shimadzu UHPLC system coupled with AB Sciex QTRAP 4500 mass spectrometer. Agilent Eclipse XDB C18 column (4.6×3.0 mm, 1.8 μm) was used with a 1-min gradient elution at 1 mL/min using water containing 0.1% ammonia acetate as mobile phase A and 90% methanol containing 0.1% ammonia acetate as mobile phase B. The LC column temperature was maintained at 45° C. Negative ionization mode was used for all the analytes.
The genes for 20 Type-III PKS enzymes were codon optimized for E. coli and cloned under control of a constitutive promoter into an expression vector (p15a replicon, carbenicillin resistance marker). The 20 plasmids were transformed into an E. coli derivative strain which overexpressed an acyl-CoA synthetase (fadD) gene and expressed an olivetolic acid cyclase (OAC) from Cannabis sativa.
The in vivo assay procedure and analytical methods were performed as described above.
As to B1, the Total amounted to 148 µM.
As to B2, the Total was determined as 1005 µM.
As to B3, the Total was determined as 468 µM.
With B4, the Total is 1072 µM.
On to B5, for which the Total was determined as 1874 µM.
Consider B6, for which the Total worked out at 320 µM.
Turning to B7, the Total was 1406 µM.
On the same count and under the same terms, under B8 stands 948 µM.

Still in this assay, the particulars now being: gene on plasmid.
Take B5: the “levels of OLA relative to the E. coli strain with OLS from C. sativa” value is on record as “over two-fold”.

Staying with this assay, now noted: gene on plasmid, constitutive promoter; culture spiked with 4 mM hexanoic acid.
Turning to B1, the OL is 26 µM, the OLA is 19 µM and the PDAL turned out to be 102 µM.
In the case of B2, the OL was 268 µM, the OLA was 256 µM and the PDAL stood at 481 µM.
Regarding B3, the OL was found to be 54 µM, the OLA is 36 µM and the PDAL is 378 µM.
Consider B4, for which the OL was determined as 432 µM, the OLA amounted to 390 µM and the PDAL worked out at 250 µM.
Take B5: the OL turned out to be 606 µM, the OLA was 653 µM and the PDAL was found to be 615 µM.
Taken in the same sequence, the figures for B6 were 93 µM, 98 µM and 129 µM.
B7: the OL stood at 289 µM, the OLA was found to be 302 µM and the PDAL came out at 815 µM.
As for B8, the OL was 159 µM, the OLA came to 152 µM and the PDAL came out at 638 µM.

The record behind these values is patent publication US20240240160A1, “NOVEL OLIVETOL SYNTHASES FOR C[…]” (priority 2021, published 2024).
